Assay in all cases: LC-MS of glycolipid product, Hanes-Woolf plot
Assay type in all cases: biochemical, Candidatus Pelagibacter sp. HTCC7211
Common to all, as to conditions: acceptor C16:0/C18:1 DAG, no added Mg2+, Tricine-KOH pH 8.5, 35 °C, 2 mM DTT

Substrate in data set [1]: O=c1ccn([C@@H]2O[C@H](COP(=O)(O)OP(=O)(O)O[C@H]3O[C@H](CO)[C@H](O)[C@H](O)[C@H]3O)[C@@H](O)[C@H]2O)c(=O)[nH]1
From the text: (§1) LC-MS of glycolipid product, Hanes-Woolf plot on GTcp

Substrate in data set [2]: O=c1ccn([C@@H]2O[C@H](CO[P@@](=O)(O)O[P@@](=O)(O)O[C@H]3O[C@H](CO)[C@@H](O)[C@H](O)[C@H]3O)[C@@H](O)[C@H]2O)c(=O)[nH]1
From the text: as §1

Substrate in data set [3]: O=C(O)[C@H]1O[C@H](OP(=O)(O)OP(=O)(O)OC[C@H]2O[C@@H](n3ccc(=O)[nH]c3=O)[C@H](O)[C@@H]2O)[C@H](O)[C@@H](O)[C@@H]1O
From the text: as §1

As a reminder, the Km is the substrate concentration at which the rate is half of its maximum. As a reminder, the kcat is the number of substrate molecules converted per active site and unit of time at saturation. The kcat/Km is the second-order rate constant that governs catalysis at low substrate concentration.

B1: GTcp (Candidatus Pelagibacter sp. HTCC7211) (protein)
chain: MKILIVTDAYYPQVNGVVRTLHETGEILKSQGHTIEYITPQQFLTVPMPKYNEIRLSLNVWPRVSNLINSIKPDAIHIATEGPLGFMARRHCIKKGLKFTTSFHTRFDKYIKLYMPIIPAKWSEKFLCNFHNKAERILVTTESMREELIALGVDNNKMVTWTRGGNHGAFKNPVKRDLPYKRPIWIYVGRVAVEKNIKAFLDLDLEGTKVIIGKGPNLNKLKKKYPNDYFLGEKTNGELASHFASSDVFVFPSKTDTFGIVVLESLSCGTPVAAYPVPGPKDILGGSKIDTLDQDLKTSALKALKVNREDCLEFAKKYSWEETARIFYNNISPN
notes: full length, 334 aa (1,005 bp), codon-optimised synthetic gene in pET22b, His-tagged, E. coli BL21-CodonPlus(DE3)-RIL, Ni-NTA and Superdex 200, 38 kDa monomer, about 70 kDa dimer
B1: in data set [1], the Km was 32 ± 0.4 µM, the turnover number (kcat) worked out at 0.0172 ± 0.005 s⁻¹ and the kcat/Km worked out at 537 ± 48.3 M⁻¹ s⁻¹. In data set [2], the Km turned out to be 82 ± 0.3 µM, the catalytic constant (kcat) worked out at 0.0975 ± 0.00667 s⁻¹ and the kcat/Km was determined as 1190 ± 45 M⁻¹ s⁻¹. For the same protein, in data set [3], the Michaelis constant (Km) came to 68 ± 0.5 µM, the turnover number (kcat) was 0.0675 ± 0.00167 s⁻¹ and the kcat/Km was found to be 993 ± 60 M⁻¹ s⁻¹.

For the origin of these results see PMC8231724, “A Glycolipid Glycosyltransferase with Broad Substrate Specificity from the Marine Bacterium “Candidatus Pelagibacter sp.” Strain HTCC7211” (Applied and Environmental Microbiology, 2021).
